US10398755

Target: T1, mouse CLU with C-terminal (His)6 (CLU-His), recombinant secreted clusterin, Q06890
T1 chain: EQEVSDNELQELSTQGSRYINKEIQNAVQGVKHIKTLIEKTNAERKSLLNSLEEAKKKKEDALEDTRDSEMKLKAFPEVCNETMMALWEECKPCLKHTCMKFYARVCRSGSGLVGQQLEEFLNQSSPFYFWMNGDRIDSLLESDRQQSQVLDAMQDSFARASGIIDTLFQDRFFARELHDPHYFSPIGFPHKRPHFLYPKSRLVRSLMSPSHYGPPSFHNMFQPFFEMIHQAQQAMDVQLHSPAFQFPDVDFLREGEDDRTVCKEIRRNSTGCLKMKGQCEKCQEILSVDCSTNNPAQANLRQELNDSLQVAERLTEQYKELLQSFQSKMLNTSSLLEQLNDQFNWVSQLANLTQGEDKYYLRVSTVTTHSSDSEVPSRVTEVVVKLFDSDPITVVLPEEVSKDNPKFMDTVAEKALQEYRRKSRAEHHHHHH

B1: MMP-9, propeptide-cleaved (APMA-processed active MMP-9) (protein)
chain: FQTFKGLKWDHHNITYWIQNYSEDLPRDMIDDAFARAFAVWGEVAPLTFTRVYGPEADIVIQFGVAEHGDGYPFDGKDGLLAHAFPPGAGVQGDAHFDDDELWSLGKGVVIPTYYGNSNGAPCHFPFTFEGRSYSACTTDGRNDGTPWCSTTADYDKDGKFGFCPSERLYTEHGNGEGKPCVFPFIFEGRSYSACTTKGRSDGYRWCATTANYDQDKLYGFCPTRVDATVVGGNSAGELCVFPFVFLGKQYSSCTSDGRRDGRLWCATTSNFDTDKKWGFCPDQGYSLFLVAAHEFGHALGLDHSSVPEALMYPLYSYLEGFPLNKDDIDGIQYLYGRGSKPDPRPPATTTTEPQPTAPPTMCPTIPPTAYPTVGPTVGPTGAPSPGPTSSPSPGPTGAPSPGPTAPPTAGSSEASTESLSPADNPCNVDVFDAIAEIQGALHFFKDGWYWKFLNHRGSPLQGPFLTARTWPALPATLDSAFEDPQTKRVFFFSGRQMWVYTGKTVLGPRSLDKLGLGPEVTHVSGLLPRRLGKALLFSKGRVWRFDLKSQKVDPQSVIRVDKEFSGVPWNSHDIFQYQDKAYFCHGKFFWRVSFQNEVNKVDHEVNQVDDVGYVTYDLLQCP
  digestion of CLU by active MMP-9 (SDS/PAGE, Coomasie staining; gelatin as known substrate): the density of CLU protein, separated as a and 6 subunits, changed little, whereas most high molecular weight gelatin disappeared upon incubation with MMP-9, indicating that CLU is not a substrate for MMP-9 in vitro
